B1: THAP1; numbered along this chain (parent)
chain: MVQSCSAYGCKNRYDKDKPVSFHKFPLTRPSLCKEWEAAVRRKNFKPTKYSSICSEHFTPDCFKRECNNKLLKENAVPTIFLCTEPHDKKEDLLEPQEQLPPPPLPPPVSQVDAAIGLLMPPLQTPVNLSVFCDHNYTVEDTMHQRKRIHQLEQQVEKLRKKLKTAQQRCRRQERQLEKLKEVVHFQKEKDDVSERGYVILPNDYFEIVEVPA

Variants of: B1
Test: THAP1 transcriptional activity (GFP+/GFP- enrichment relative to wild-type constructs) (ratio to WT); higher = more THAP1 activity (PSMB5 reporter activation)
Conditions: with PSMB5 promoter-GFP reporter
Experimental: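 Deep mutational scan of human THAP1. Site-saturation single amino acid variant library (residues 2-213) was expressed by lentivirus at MOI ~0.3 in THAP1-knockout HEK-293T cells carrying an endogenous PSMB5 promoter-GFP knock-in reporter. Five days post-transduction, BFP+ cells were FACS-sorted into GFP dim and GFP bright populations and variants were counted by Illumina sequencing. Activity is the GFP-bright/GFP-dim read fold change, mean of 2 replicates, divided by the mean fold change of wild-type (synonymous) constructs in the same screen pool; WT = 1.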
Work on MVQSCSAYGCKNRYDKDKPVSFHKFPLTRPSICKEWEAAVRRKNFKPTKYSSICSEHFTPDCFKRECNNKLLKENAVPTIFLCTEPHDKKEDLLEPQEQLPPPPLPPPVSQVDAAIGLLMPPLQTPVNLSVFCDHNYTVEDTMHQRKRIHQLEQQVEKLRKKLKTAQQRCRRQERQLEKLKEVVHFQKEKDDVSERGYVILPNDYFEIVEVPA [L32I] yielded a THAP1 transcriptional activity of 0.906. Variant MVQSCSAYGCKNRYDKDKPVSFHKFPLTRPSKCKEWEAAVRRKNFKPTKYSSICSEHFTPDCFKRECNNKLLKENAVPTIFLCTEPHDKKEDLLEPQEQLPPPPLPPPVSQVDAAIGLLMPPLQTPVNLSVFCDHNYTVEDTMHQRKRIHQLEQQVEKLRKKLKTAQQRCRRQERQLEKLKEVVHFQKEKDDVSERGYVILPNDYFEIVEVPA [L32K] has a THAP1 transcriptional activity of 0.267. Variant MVQSCSAYGCKNRYDKDKPVSFHKFPLTRPSMCKEWEAAVRRKNFKPTKYSSICSEHFTPDCFKRECNNKLLKENAVPTIFLCTEPHDKKEDLLEPQEQLPPPPLPPPVSQVDAAIGLLMPPLQTPVNLSVFCDHNYTVEDTMHQRKRIHQLEQQVEKLRKKLKTAQQRCRRQERQLEKLKEVVHFQKEKDDVSERGYVILPNDYFEIVEVPA [L32M] has a THAP1 transcriptional activity of 0.357. For MVQSCSAYGCKNRYDKDKPVSFHKFPLTRPSNCKEWEAAVRRKNFKPTKYSSICSEHFTPDCFKRECNNKLLKENAVPTIFLCTEPHDKKEDLLEPQEQLPPPPLPPPVSQVDAAIGLLMPPLQTPVNLSVFCDHNYTVEDTMHQRKRIHQLEQQVEKLRKKLKTAQQRCRRQERQLEKLKEVVHFQKEKDDVSERGYVILPNDYFEIVEVPA [L32N], the THAP1 transcriptional activity was 0.173. MVQSCSAYGCKNRYDKDKPVSFHKFPLTRPSPCKEWEAAVRRKNFKPTKYSSICSEHFTPDCFKRECNNKLLKENAVPTIFLCTEPHDKKEDLLEPQEQLPPPPLPPPVSQVDAAIGLLMPPLQTPVNLSVFCDHNYTVEDTMHQRKRIHQLEQQVEKLRKKLKTAQQRCRRQERQLEKLKEVVHFQKEKDDVSERGYVILPNDYFEIVEVPA [L32P] gave a THAP1 transcriptional activity of 0.113. In the case of MVQSCSAYGCKNRYDKDKPVSFHKFPLTRPSQCKEWEAAVRRKNFKPTKYSSICSEHFTPDCFKRECNNKLLKENAVPTIFLCTEPHDKKEDLLEPQEQLPPPPLPPPVSQVDAAIGLLMPPLQTPVNLSVFCDHNYTVEDTMHQRKRIHQLEQQVEKLRKKLKTAQQRCRRQERQLEKLKEVVHFQKEKDDVSERGYVILPNDYFEIVEVPA [L32Q], the THAP1 transcriptional activity is reported as 0.378. MVQSCSAYGCKNRYDKDKPVSFHKFPLTRPSRCKEWEAAVRRKNFKPTKYSSICSEHFTPDCFKRECNNKLLKENAVPTIFLCTEPHDKKEDLLEPQEQLPPPPLPPPVSQVDAAIGLLMPPLQTPVNLSVFCDHNYTVEDTMHQRKRIHQLEQQVEKLRKKLKTAQQRCRRQERQLEKLKEVVHFQKEKDDVSERGYVILPNDYFEIVEVPA [L32R] was tested, and the THAP1 transcriptional activity was 0.31. MVQSCSAYGCKNRYDKDKPVSFHKFPLTRPSSCKEWEAAVRRKNFKPTKYSSICSEHFTPDCFKRECNNKLLKENAVPTIFLCTEPHDKKEDLLEPQEQLPPPPLPPPVSQVDAAIGLLMPPLQTPVNLSVFCDHNYTVEDTMHQRKRIHQLEQQVEKLRKKLKTAQQRCRRQERQLEKLKEVVHFQKEKDDVSERGYVILPNDYFEIVEVPA [L32S] gave a THAP1 transcriptional activity of 0.21. For MVQSCSAYGCKNRYDKDKPVSFHKFPLTRPSTCKEWEAAVRRKNFKPTKYSSICSEHFTPDCFKRECNNKLLKENAVPTIFLCTEPHDKKEDLLEPQEQLPPPPLPPPVSQVDAAIGLLMPPLQTPVNLSVFCDHNYTVEDTMHQRKRIHQLEQQVEKLRKKLKTAQQRCRRQERQLEKLKEVVHFQKEKDDVSERGYVILPNDYFEIVEVPA [L32T], the THAP1 transcriptional activity was 0.295. In the case of MVQSCSAYGCKNRYDKDKPVSFHKFPLTRPSVCKEWEAAVRRKNFKPTKYSSICSEHFTPDCFKRECNNKLLKENAVPTIFLCTEPHDKKEDLLEPQEQLPPPPLPPPVSQVDAAIGLLMPPLQTPVNLSVFCDHNYTVEDTMHQRKRIHQLEQQVEKLRKKLKTAQQRCRRQERQLEKLKEVVHFQKEKDDVSERGYVILPNDYFEIVEVPA [L32V], the THAP1 transcriptional activity is reported as 0.794. Work on MVQSCSAYGCKNRYDKDKPVSFHKFPLTRPSWCKEWEAAVRRKNFKPTKYSSICSEHFTPDCFKRECNNKLLKENAVPTIFLCTEPHDKKEDLLEPQEQLPPPPLPPPVSQVDAAIGLLMPPLQTPVNLSVFCDHNYTVEDTMHQRKRIHQLEQQVEKLRKKLKTAQQRCRRQERQLEKLKEVVHFQKEKDDVSERGYVILPNDYFEIVEVPA [L32W] yielded a THAP1 transcriptional activity of 0.161. In the case of MVQSCSAYGCKNRYDKDKPVSFHKFPLTRPSYCKEWEAAVRRKNFKPTKYSSICSEHFTPDCFKRECNNKLLKENAVPTIFLCTEPHDKKEDLLEPQEQLPPPPLPPPVSQVDAAIGLLMPPLQTPVNLSVFCDHNYTVEDTMHQRKRIHQLEQQVEKLRKKLKTAQQRCRRQERQLEKLKEVVHFQKEKDDVSERGYVILPNDYFEIVEVPA [L32Y], the THAP1 transcriptional activity is reported as 0.135. Work on MVQSCSAYGCKNRYDKDKPVSFHKFPLTRPSLAKEWEAAVRRKNFKPTKYSSICSEHFTPDCFKRECNNKLLKENAVPTIFLCTEPHDKKEDLLEPQEQLPPPPLPPPVSQVDAAIGLLMPPLQTPVNLSVFCDHNYTVEDTMHQRKRIHQLEQQVEKLRKKLKTAQQRCRRQERQLEKLKEVVHFQKEKDDVSERGYVILPNDYFEIVEVPA [C33A] yielded a THAP1 transcriptional activity of 0.499. Work on MVQSCSAYGCKNRYDKDKPVSFHKFPLTRPSLDKEWEAAVRRKNFKPTKYSSICSEHFTPDCFKRECNNKLLKENAVPTIFLCTEPHDKKEDLLEPQEQLPPPPLPPPVSQVDAAIGLLMPPLQTPVNLSVFCDHNYTVEDTMHQRKRIHQLEQQVEKLRKKLKTAQQRCRRQERQLEKLKEVVHFQKEKDDVSERGYVILPNDYFEIVEVPA [C33D] yielded a THAP1 transcriptional activity of 0.11. MVQSCSAYGCKNRYDKDKPVSFHKFPLTRPSLEKEWEAAVRRKNFKPTKYSSICSEHFTPDCFKRECNNKLLKENAVPTIFLCTEPHDKKEDLLEPQEQLPPPPLPPPVSQVDAAIGLLMPPLQTPVNLSVFCDHNYTVEDTMHQRKRIHQLEQQVEKLRKKLKTAQQRCRRQERQLEKLKEVVHFQKEKDDVSERGYVILPNDYFEIVEVPA [C33E] gave a THAP1 transcriptional activity of 0.0749. Variant MVQSCSAYGCKNRYDKDKPVSFHKFPLTRPSLFKEWEAAVRRKNFKPTKYSSICSEHFTPDCFKRECNNKLLKENAVPTIFLCTEPHDKKEDLLEPQEQLPPPPLPPPVSQVDAAIGLLMPPLQTPVNLSVFCDHNYTVEDTMHQRKRIHQLEQQVEKLRKKLKTAQQRCRRQERQLEKLKEVVHFQKEKDDVSERGYVILPNDYFEIVEVPA [C33F] has a THAP1 transcriptional activity of 0.17. MVQSCSAYGCKNRYDKDKPVSFHKFPLTRPSLHKEWEAAVRRKNFKPTKYSSICSEHFTPDCFKRECNNKLLKENAVPTIFLCTEPHDKKEDLLEPQEQLPPPPLPPPVSQVDAAIGLLMPPLQTPVNLSVFCDHNYTVEDTMHQRKRIHQLEQQVEKLRKKLKTAQQRCRRQERQLEKLKEVVHFQKEKDDVSERGYVILPNDYFEIVEVPA [C33H] was tested, and the THAP1 transcriptional activity was 0.173. In the case of MVQSCSAYGCKNRYDKDKPVSFHKFPLTRPSLIKEWEAAVRRKNFKPTKYSSICSEHFTPDCFKRECNNKLLKENAVPTIFLCTEPHDKKEDLLEPQEQLPPPPLPPPVSQVDAAIGLLMPPLQTPVNLSVFCDHNYTVEDTMHQRKRIHQLEQQVEKLRKKLKTAQQRCRRQERQLEKLKEVVHFQKEKDDVSERGYVILPNDYFEIVEVPA [C33I], the THAP1 transcriptional activity is reported as 0.159. Variant MVQSCSAYGCKNRYDKDKPVSFHKFPLTRPSLKKEWEAAVRRKNFKPTKYSSICSEHFTPDCFKRECNNKLLKENAVPTIFLCTEPHDKKEDLLEPQEQLPPPPLPPPVSQVDAAIGLLMPPLQTPVNLSVFCDHNYTVEDTMHQRKRIHQLEQQVEKLRKKLKTAQQRCRRQERQLEKLKEVVHFQKEKDDVSERGYVILPNDYFEIVEVPA [C33K] has a THAP1 transcriptional activity of 0.22. MVQSCSAYGCKNRYDKDKPVSFHKFPLTRPSLLKEWEAAVRRKNFKPTKYSSICSEHFTPDCFKRECNNKLLKENAVPTIFLCTEPHDKKEDLLEPQEQLPPPPLPPPVSQVDAAIGLLMPPLQTPVNLSVFCDHNYTVEDTMHQRKRIHQLEQQVEKLRKKLKTAQQRCRRQERQLEKLKEVVHFQKEKDDVSERGYVILPNDYFEIVEVPA [C33L] showed a THAP1 transcriptional activity of 0.708. For MVQSCSAYGCKNRYDKDKPVSFHKFPLTRPSLMKEWEAAVRRKNFKPTKYSSICSEHFTPDCFKRECNNKLLKENAVPTIFLCTEPHDKKEDLLEPQEQLPPPPLPPPVSQVDAAIGLLMPPLQTPVNLSVFCDHNYTVEDTMHQRKRIHQLEQQVEKLRKKLKTAQQRCRRQERQLEKLKEVVHFQKEKDDVSERGYVILPNDYFEIVEVPA [C33M], the THAP1 transcriptional activity was 0.188. In the case of MVQSCSAYGCKNRYDKDKPVSFHKFPLTRPSLNKEWEAAVRRKNFKPTKYSSICSEHFTPDCFKRECNNKLLKENAVPTIFLCTEPHDKKEDLLEPQEQLPPPPLPPPVSQVDAAIGLLMPPLQTPVNLSVFCDHNYTVEDTMHQRKRIHQLEQQVEKLRKKLKTAQQRCRRQERQLEKLKEVVHFQKEKDDVSERGYVILPNDYFEIVEVPA [C33N], the THAP1 transcriptional activity is reported as 0.177. Variant MVQSCSAYGCKNRYDKDKPVSFHKFPLTRPSLPKEWEAAVRRKNFKPTKYSSICSEHFTPDCFKRECNNKLLKENAVPTIFLCTEPHDKKEDLLEPQEQLPPPPLPPPVSQVDAAIGLLMPPLQTPVNLSVFCDHNYTVEDTMHQRKRIHQLEQQVEKLRKKLKTAQQRCRRQERQLEKLKEVVHFQKEKDDVSERGYVILPNDYFEIVEVPA [C33P] has a THAP1 transcriptional activity of 0.117. MVQSCSAYGCKNRYDKDKPVSFHKFPLTRPSLQKEWEAAVRRKNFKPTKYSSICSEHFTPDCFKRECNNKLLKENAVPTIFLCTEPHDKKEDLLEPQEQLPPPPLPPPVSQVDAAIGLLMPPLQTPVNLSVFCDHNYTVEDTMHQRKRIHQLEQQVEKLRKKLKTAQQRCRRQERQLEKLKEVVHFQKEKDDVSERGYVILPNDYFEIVEVPA [C33Q] showed a THAP1 transcriptional activity of 0.193. MVQSCSAYGCKNRYDKDKPVSFHKFPLTRPSLRKEWEAAVRRKNFKPTKYSSICSEHFTPDCFKRECNNKLLKENAVPTIFLCTEPHDKKEDLLEPQEQLPPPPLPPPVSQVDAAIGLLMPPLQTPVNLSVFCDHNYTVEDTMHQRKRIHQLEQQVEKLRKKLKTAQQRCRRQERQLEKLKEVVHFQKEKDDVSERGYVILPNDYFEIVEVPA [C33R] showed a THAP1 transcriptional activity of 0.15. Variant MVQSCSAYGCKNRYDKDKPVSFHKFPLTRPSLSKEWEAAVRRKNFKPTKYSSICSEHFTPDCFKRECNNKLLKENAVPTIFLCTEPHDKKEDLLEPQEQLPPPPLPPPVSQVDAAIGLLMPPLQTPVNLSVFCDHNYTVEDTMHQRKRIHQLEQQVEKLRKKLKTAQQRCRRQERQLEKLKEVVHFQKEKDDVSERGYVILPNDYFEIVEVPA [C33S] has a THAP1 transcriptional activity of 0.242. With MVQSCSAYGCKNRYDKDKPVSFHKFPLTRPSLTKEWEAAVRRKNFKPTKYSSICSEHFTPDCFKRECNNKLLKENAVPTIFLCTEPHDKKEDLLEPQEQLPPPPLPPPVSQVDAAIGLLMPPLQTPVNLSVFCDHNYTVEDTMHQRKRIHQLEQQVEKLRKKLKTAQQRCRRQERQLEKLKEVVHFQKEKDDVSERGYVILPNDYFEIVEVPA [C33T] the THAP1 transcriptional activity was 0.142. MVQSCSAYGCKNRYDKDKPVSFHKFPLTRPSLVKEWEAAVRRKNFKPTKYSSICSEHFTPDCFKRECNNKLLKENAVPTIFLCTEPHDKKEDLLEPQEQLPPPPLPPPVSQVDAAIGLLMPPLQTPVNLSVFCDHNYTVEDTMHQRKRIHQLEQQVEKLRKKLKTAQQRCRRQERQLEKLKEVVHFQKEKDDVSERGYVILPNDYFEIVEVPA [C33V] gave a THAP1 transcriptional activity of 0.301.
